target: T1, His6-tagged recombinant extracellular domain of human signal regulatory protein alpha (hSIRP1α) (human, UniProt P78324 31-373); test: ELISA, crude periplasmic extracts on coated His6-tagged hSIRP1α extracellular domain
T1 construct: extracellular domain; also called antigen; not shown: His6 tag
Protocol: The VHH library was panned on solid-phase coated antigen (200 μg/ml in 100 mM NaHCO₃, pH 9.3) for 3 rounds. The enrichment for antigen-specific phages was assessed after each round of panning by comparing the number of phagemid particles eluted from antigen-coated wells with the number of phagemid particles eluted from negative control (uncoated blocked) wells. […] There was no enrichment after the 1st panning round. In total, 190 colonies from panning round 2 were randomly selected and analyzed by ELISA for the presence of antigen-specific VHHs in their periplasmic extracts (ELISA using crude periplasmic extracts including soluble VHHs) (see FIG. 5). The antigens used for panning and ELISA screening were the same as the ones used for immunization, using uncoated blocked wells as negative control. […] Based on sequence data of the positive colonies, 27 different full length VHHs were distinguished (see FIGS. 4A, 4B, and 5 and SEQ ID Nos: 300-326).

T1 sequence (P78324 31-373): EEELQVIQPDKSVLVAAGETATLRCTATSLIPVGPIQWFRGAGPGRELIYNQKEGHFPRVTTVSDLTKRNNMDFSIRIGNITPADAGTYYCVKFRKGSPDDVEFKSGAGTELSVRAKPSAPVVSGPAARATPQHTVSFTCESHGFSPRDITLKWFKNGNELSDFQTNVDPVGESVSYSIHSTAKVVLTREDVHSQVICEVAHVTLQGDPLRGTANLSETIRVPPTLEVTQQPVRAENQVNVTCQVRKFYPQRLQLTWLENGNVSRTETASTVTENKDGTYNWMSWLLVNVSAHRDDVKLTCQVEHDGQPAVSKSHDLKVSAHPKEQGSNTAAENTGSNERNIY

binding result | Binder
binds | 2HSI89 (VHH, The entry includes the C-terminal AAA linker, HA tag and His6 tag, as expressed from pMECS) VHH: QVQLQESGGGVVQAGDSLRLSCVASERTFSSLDMGWFRQAPGKEREFVAGISRSGISQYYADSMKGRFTISRDNAKNLVYLQMNSLKPEDTAVYYCAAALTFRGSNLPRDSNYWGQGTQVTVSS
binds | 2HSI44 (VHH, The entry includes the C-terminal AAA linker, HA tag and His6 tag, as expressed from pMECS) VHH: QVQLQESGGGLVQAGGSLRLSCTASGRTFSSLDMGWFRQAPGKEREFVAGISRSGISQYYADSMKGRFTISRDNAKNLVYLQMNSLKPEDTAVYYCAAALTFRGSDLPRDSNYWGQGTQVTVSS
binds | 2HSI49 (VHH, The entry includes the C-terminal AAA linker, HA tag and His6 tag, as expressed from pMECS) VHH: QVQLQESGGGVVQTGDSLRLSCVASGRTFSSLDMGWFRQAPGKEREFVAGISRSGISQYYADSMKGRFTISRDNAKNLVYLQMNSLKPEDTAVYYCAAALTFRGSDLPRDSNYWGQGTQVTVSS
binds | 2HSI113 (VHH, The entry includes the C-terminal AAA linker, HA tag and His6 tag, as expressed from pMECS) VHH: QVQLQESGGGLVQAGDSLRLSCVASGRTFSSLDMGWFRQAPGKEREFVAGISRSGISQYYADSMKGRFTISRDNAKNLVYLQMNSLKPEDTAVYYCAAALTFRGSDLPRDSNYWGQGTQVTVSS
binds | 2HSI31 (VHH, The entry includes the C-terminal AAA linker, HA tag and His6 tag, as expressed from pMECS) VHH: QVQLQESGGGVVQAGDSLRLSCVASGRTFSSLDMGWFRQAPGKEREFVAGISRSGISQYYADSMRGRFTISRDNAKNLVYLQMNSLKPEDTAVYYCAAALTFRGSDLPRDSNYWGQGTQVTVSS
binds | 2HSI109 (VHH, The entry includes the C-terminal AAA linker, HA tag and His6 tag, as expressed from pMECS) VHH: QVQLQESGGGSVQAGDSLRLSCVASGRTFSSLDMGWFRQAPGKEREFVAGISRTGISAYYADSMKGRFTISRDNAKNLVYLQMNSLKSEDTAVYYCAAALTFRGSDLPRDSNYWGQGTQVTVSS
binds | 2HSI57 (VHH, The entry includes the C-terminal AAA linker, HA tag and His6 tag, as expressed from pMECS) VHH: QVQLQESGGGLVQAGGSLRLSCAASGRTFSSLDMGWFRQAPGKEREFVAGISRSGISQYYADSMKGRFTISRDNAKNLVYLQMNSLKPEDTAVYYCAAALTFRGSDLPRDSNYWGQGTQVTVSS
binds | 2HSI105 (VHH, The entry includes the C-terminal AAA linker, HA tag and His6 tag, as expressed from pMECS) VHH: QVQLQESGGGVVQAGDSLRLSCVASGRTFSSLDMGWFRQAPGKEREFVAGISRSGISQYYADSMKGRFTISRDNAKNLVYLQMNSLRPEDTAVYYCAAALTFRGSDLPRDSNYWGQGTQVTVSS
binds | 2HSI90 (VHH, The entry includes the C-terminal AAA linker, HA tag and His6 tag, as expressed from pMECS) VHH: QVQLQESGGGVVQAGDSLRLSCVASERTFSSLDMGWFRQAPGKEREFVAGISRSGISQYYADSMKGRFTISRDNAKNLVYLQMNSLKPEDTAVYYCAAALTFRGSDLPRDSNYWGQGTQVTVSS
binds | 2HSI32 (VHH, The entry includes the C-terminal AAA linker, HA tag and His6 tag, as expressed from pMECS) VHH: QVQLQESGGGVVQAGDSLRLSCVASGRTFSSLDMGWFRQAPGKEREFVAGISRTGISAYYADSMKGRFTISRDNAKNLVYLQMNSLKSEDTAVYYCAAALTFRGSDLPRDSNYWGQGTQVTVSS
binds | 2HSI40 (VHH, The entry includes the C-terminal AAA linker, HA tag and His6 tag, as expressed from pMECS) VHH: QVQLQESGGGVVQAGDSLRLSCVASGRTFSSLDMGWFRQAPGKEREFVAGISRSGISQYYADSMKGRFTISRDNAKSLVYLQMNSLKPEDTAVYYCAAALTFRGSDLPRDSNYWGQGTQVTVSS

More lines, now with the values behind:

Binder | binding result
2HSI22 (VHH, The entry includes the C-terminal AAA linker, HA tag and His6 tag, as expressed from pMECS) VHH: QVQLQESGGGLVQPGGSLRLSCAASGLNFRRYTMGWFRQAPGKEREFVGVINWSDDSIYYADSVKGRFAISRDNTKNTVYLQMASLKPEDTAVYYCAASPQWDTRVRQTMRGKYDYWGQGTQVTVSS | binds
2HSI1 (VHH, The entry includes the C-terminal AAA linker, HA tag and His6 tag, as expressed from pMECS) VHH: QVQLQESGGGVVQAGDSLRLSCVASGRTFSSLDMGWFRQAPGKEREFVAGISRSGISQYYADSMKGRFTISRDNAKNLVYLQMNSLKPEDTAVYYCAAALTFRGSDLPRDSNYWGQGTQVTVSS | binds
2HSI86 (VHH, The entry includes the C-terminal AAA linker, HA tag and His6 tag, as expressed from pMECS) VHH: QVQLQESGGGLVQPGGSLRLSCAASGRTFSSLDMGWFRQAPGKEREFVAGISRSGISQYYADSMKGRFTISRDNAKNLVYLQINSLKPEDTAVYYCAAALTFRGSDLPRDSNYWGQGTQVTVSS | binds
2HSI68 (VHH, The entry includes the C-terminal AAA linker, HA tag and His6 tag, as expressed from pMECS) VHH: QVQLQESGGGWVQPGGSLRLSCEASGRTSSSLDMGWFRQAPGKEREFVAGISRTGISAYYADSMKGRFTISRDNAKNLVYLQMNSLKSEDTAVYYCAAALTFRGSDLPRDSNYWGQGTQVTVSS | binds
2HSI55 (VHH, The entry includes the C-terminal AAA linker, HA tag and His6 tag, as expressed from pMECS) VHH: QVQLQESGGGVVQAGDPLRLSCVASGRTFSSLDMGWFRQAPGKEREFVAGISRSGISQYYADSMKGRFTISRDNAKNLVYLQMNSLKPEDTAVYYCAAALTFRGSDLPRDSNYWGQGTQVTVSS | binds
2HSI110 (VHH, The entry includes the C-terminal AAA linker, HA tag and His6 tag, as expressed from pMECS) VHH: QVQLQESGGGLVQSGDSLRLSCVASGRTFSSLDMGWFRQAPGKEREFVAGISRSGISQYYADSMKGRFTISRDNAKNLVYLQMNSLKPEDTAVYYCAAALTFRGSDLPRDSNYWGQGTQVTVSS | binds
2HSI35 (VHH, The entry includes the C-terminal AAA linker, HA tag and His6 tag, as expressed from pMECS) VHH: QVQLQESGGGLVQPGGSLRLSCAASGFTFGGYDMGWFRQAPGKEREFVAGISRSGISQYYADSMKGRFTISRDNAKNLVYLQMNSLKPEDTAVYYCAAALTFRGSDLPRDSNYWGQGTQVTVSS | binds
2HSI102 (VHH, The entry includes the C-terminal AAA linker, HA tag and His6 tag, as expressed from pMECS) VHH: QVQLQESGGGVVQAGDSLRLSCVASGRAFSSLDMGWFRQAPGKEREFVAGISRSGISQYYADSMKGRFTISRDNAKNLVYLQMNSLKPEDTAVYYCAAALTFRGSDLPRDSNYWGQGTQVTVSS | binds
2HSI54 (VHH, The entry includes the C-terminal AAA linker, HA tag and His6 tag, as expressed from pMECS) VHH: QVQLQESGGGVVQAGDSLRLSCVASGRTFSSLDMGWFRQAPGKEREFVAGISRSGISQYYANSMKGRFTISRDNAKNLVYLQMNSLKPEDTAVYYCAAALTFRGSDLPRDSNYWGQGTQVTVSS | binds
2HSI3 (VHH, The entry includes the C-terminal AAA linker, HA tag and His6 tag, as expressed from pMECS) VHH: QVQLQESGGGVVQAGDSLKLSCVASGRTFSSLDMGWFRQAPGKEREFVAGISRSGISQYYADSMKGRFTISRDNAKNLVYLQMNSLKPEDTAVYYCAAALTFRGSDLPRDSNYWGQGTQVTVSS | binds
2HSI98 (VHH, The entry includes the C-terminal AAA linker, HA tag and His6 tag, as expressed from pMECS) VHH: QVQLQESGGGVVQAGDSLGLSCVASGRTFSSLDMGWFRQAPGKEREFVAGISRSGISQYYADSMKGRFTISRDNAKNLVYLQMNSLKPEDTAVYYCAAALTFRGSDLPRDSNYWGQGTQVTVSS | binds
2HSI88 (VHH, The entry includes the C-terminal AAA linker, HA tag and His6 tag, as expressed from pMECS) VHH: QVQLQESGGGVVQAGDSLRLSCVASGHTFSSLDMGWFRQAPGKEREFVAGISRSGISQYYADSMKGRFTISRDNAKNLVYLQMNSLKPEDTAVYYCAAALTFRGSDLPRDSNYWGQGTQVTVSS | binds
2HSI24 (VHH, The entry includes the C-terminal AAA linker, HA tag and His6 tag, as expressed from pMECS) VHH: QVQLQESGGGVVQAGDSLRLSCVASGRTFSSLDMGWFRQTPGKEREFVAGISRSGISQYYADSMKGRFTISRDNAKNLVYLQMNSLKPEDTAVYYCAAALTFRGSDLPRDSNYWGQGTQVTVSS | binds
2HSI80 (VHH, The entry includes the C-terminal AAA linker, HA tag and His6 tag, as expressed from pMECS) VHH: QVQLQESGGGVVQAGDSLRLSCVASGRTFSSLDMGWFRQAPGKEREFVAGVSRSGISQYYADSMKGRFTISRDNAKNLVYLQMNSLKPEDTAVYYCAAALTFRGSDLPRDSNYWGQGTQVTVSS | binds
2HSI77 (VHH, The entry includes the C-terminal AAA linker, HA tag and His6 tag, as expressed from pMECS) VHH: QVQLQESGGGSVQAGGSLRLSCVASGRTFSSLDMGWFRQAPGKEREFVAGISRSGISQYYADSMKGRFTISRDNAKNLVYLQMNSLKPEDTAVYYCAAALTFRGSDLPRDSNYWGQGTQVTVSS | binds

target: T2, full length human SIRPA expressed on transiently transfected Hek293T cells (pMET7 FLAG-hSIRPA) (human, UniProt P78324 31-504); test: FACS, serial dilution of purified VHH on hSIRPA- or empty vector (MOCK)-transfected Hek293T cells; FITC-coupled anti-HA antibody
T2 construct: whole, on cells; also called human SIRP1α; human SIRPα
Protocol: Expression-vectors (pMECS) encoding the 27 putative human SIRPA binding VHHs were transformed to WK6 cells. VHHs (with a C-terminal HA and His-tag) were expressed in periplasmic extracts upon IPTG overnight stimulation and purified from the periplasmic extracts using the HisPur Cobalt Spin Plates (ThermoFisher) according to the manufacturer's guidelines. Purified VHHs were applied in a FACS binding-assay at 1 μg/ml: Hek293T cells were transiently transfected with a full length human SIRPA plasmid (pMET7 FLAG-hSIRPA) or an empty vector (MOCK). Two days after transfection, cells were resuspended and incubated with purified VHH in FACS buffer (PBS+0.5 mM EDTA+3% FBS). VHH binding was detected using a FITC-coupled anti-HA Ab (Genscript). Samples were acquired with a MACSQuant X instrument (Miltenyi Biotec) and analyzed using the FlowLogic software (Miltenyi Biotec).
Based on this initial binding-experiment and on the comparison of the 27 sequences, 5 VHHs (4 members of sequence group 1 which encompasses 26 sequences and 2HSI22 which is a unique representative of sequence group 2) were studied in more detail for binding to human SIRPA. Binding in FACS was measured as described above. In brief, hSIRPA or empty vector (MOCK) transfected cells were incubated with a serial dilution of purified VHH and binding detected using a FITC-coupled anti-HA Ab (GenScript). Data are summarized in FIG. 7 and illustrate concentration dependent specific binding to hSIRPA for all 5 VHHs.

T2 sequence (P78324 31-504): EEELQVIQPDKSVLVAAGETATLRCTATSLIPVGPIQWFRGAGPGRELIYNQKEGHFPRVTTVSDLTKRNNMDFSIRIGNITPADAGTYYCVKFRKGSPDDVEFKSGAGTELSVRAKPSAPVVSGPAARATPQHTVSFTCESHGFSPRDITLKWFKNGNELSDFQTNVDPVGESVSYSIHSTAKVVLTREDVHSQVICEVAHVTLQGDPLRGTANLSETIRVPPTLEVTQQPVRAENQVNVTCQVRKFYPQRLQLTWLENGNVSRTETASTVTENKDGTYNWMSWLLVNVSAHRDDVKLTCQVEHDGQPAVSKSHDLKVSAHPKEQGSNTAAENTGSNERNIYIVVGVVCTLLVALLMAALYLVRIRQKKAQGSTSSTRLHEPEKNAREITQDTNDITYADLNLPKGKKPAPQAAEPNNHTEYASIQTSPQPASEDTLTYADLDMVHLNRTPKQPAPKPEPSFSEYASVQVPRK

binding result | Binder
binds | 2HSI89 (VHH, The entry includes the C-terminal AAA linker, HA tag and His6 tag, as expressed from pMECS) VHH: QVQLQESGGGVVQAGDSLRLSCVASERTFSSLDMGWFRQAPGKEREFVAGISRSGISQYYADSMKGRFTISRDNAKNLVYLQMNSLKPEDTAVYYCAAALTFRGSNLPRDSNYWGQGTQVTVSS
binds | 2HSI32 (VHH, The entry includes the C-terminal AAA linker, HA tag and His6 tag, as expressed from pMECS) VHH: QVQLQESGGGVVQAGDSLRLSCVASGRTFSSLDMGWFRQAPGKEREFVAGISRTGISAYYADSMKGRFTISRDNAKNLVYLQMNSLKSEDTAVYYCAAALTFRGSDLPRDSNYWGQGTQVTVSS

Second part, the binder before the results:

Binder | binding result
2HSI22 (VHH, The entry includes the C-terminal AAA linker, HA tag and His6 tag, as expressed from pMECS) VHH: QVQLQESGGGLVQPGGSLRLSCAASGLNFRRYTMGWFRQAPGKEREFVGVINWSDDSIYYADSVKGRFAISRDNTKNTVYLQMASLKPEDTAVYYCAASPQWDTRVRQTMRGKYDYWGQGTQVTVSS | binds
2HSI86 (VHH, The entry includes the C-terminal AAA linker, HA tag and His6 tag, as expressed from pMECS) VHH: QVQLQESGGGLVQPGGSLRLSCAASGRTFSSLDMGWFRQAPGKEREFVAGISRSGISQYYADSMKGRFTISRDNAKNLVYLQINSLKPEDTAVYYCAAALTFRGSDLPRDSNYWGQGTQVTVSS | binds
2HSI35 (VHH, The entry includes the C-terminal AAA linker, HA tag and His6 tag, as expressed from pMECS) VHH: QVQLQESGGGLVQPGGSLRLSCAASGFTFGGYDMGWFRQAPGKEREFVAGISRSGISQYYADSMKGRFTISRDNAKNLVYLQMNSLKPEDTAVYYCAAALTFRGSDLPRDSNYWGQGTQVTVSS | binds
